This note sets out measurements from US6294384, “Compositions and methods based upon an isoform of p53” (The Brigham and Women's Hospital Inc., dated 2001).

This data set deals with the molecule itself. Kind of data set: yeast two-hybrid system and immunoprecipitation.

B1: p35 isoform of p53 derived from rat cardiac myocytes (other)
chain: MEDSQSDMSIELPLSQETFSCLWKLLPPDDILPTTATGSPNSMEDLFLPQDVAELLEGPEEALQVSAPAAQEPGTEAPAPVAPASATPWPLSSSVPSQKTYQGNYGFHLGFLQSGTAKSVMCTYSISLNKLFCQLAKTCPVQLWVTSTPPPGTRVRAMAIYKKSQHMTEVVRRCPHHERCSDGDGLAPPQHLIRVEGNPYAEYLDDRQTFRHSVVVPYEPPEVGSDYTTIHYKYMCNSSCMGGMNRRPILTIITLEDSRSVGVSASACSES
For the protein B1, the binding result is “no binding”.
